Test results as given in US20140086935A1 (Bayer, published 2014).

Columns and labels:
rat TIMP-1 [1] = target: T1, rat TIMP-1 (rat, UniProt P30120 24-217); assay: SPR (BIAcore), TIMP-1 coupled to chip, monovalent Fab
Description: For affinity determination, monomeric fractions of affinity and SEC purified Fab fragments or purified IgG1 molecules were used. All experiments were conducted in HBS buffer at a flow rate of 20 μl/min at 25° C. on a BIAcore™ instrument. Antigens in 100 mM sodium acetate pH 5.0 were coupled to a CM 5 sensor chip using standard EDC-NHS coupling chemistry. […] All sensograms were fitted globally using BIA evaluation software. For monovalent Fab fragments a monovalent fit (Langmuir binding) and for IgGs a bivalent fit was applied.

rat TIMP-1 [2] = target: T1, rat TIMP-1; assay: cell-based or functional assay

T1 sequence (P30120 24-217 limits assumed): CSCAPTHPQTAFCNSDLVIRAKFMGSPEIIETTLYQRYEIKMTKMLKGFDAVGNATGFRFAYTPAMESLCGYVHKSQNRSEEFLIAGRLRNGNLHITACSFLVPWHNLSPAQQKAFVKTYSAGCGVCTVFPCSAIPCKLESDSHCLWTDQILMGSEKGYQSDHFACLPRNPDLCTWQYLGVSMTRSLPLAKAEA

| Binder | Kd (rat TIMP-1 [1]) [nM] | IC50 in rat protease assay (rat TIMP-1 [2]) [nM] |
| --- | --- | --- |
| MS-BW-9 (Fab, V domains shown, Fab, FLAG + Strep-tag II; not tied by name) VH: not shown VL: DIVLTQPPSVSGAPGQRVTISCSGSSSNIGSNYVSWYQQLPGTAPKLLIYDNNQRPSGVPDRFSGSKSGTSASLAITGLQSEDEADYYCQSYDGFKTHVFGGGTKLTVLG | ~256 | > 300 |
| MS-BW-5 (Fab, V domains shown, Fab, FLAG + Strep-tag II; not tied by name) VH: QVQLVQSGAEVKKPGSSVKVSCKASGGTFSSYAISWVRQAPGQGLEWMGGIIPIFGTANYAQKFQGRVTITADESTSTAYMELSSLRSEDTAVYYCARGLYWAVYPYFDFWGQGTLVTVSS VL: DIVLTQPPSVSGAPGQRVTISCSGSSSNIGSNYVSWYQQLPGTAPKLLIYDNNQRPSGVPDRFSGSKSGTSASLAITGLQSEDEADYYCQSRDFNRGPVFGGGTKLTVLG | ~210 | – |
| MS-BW-62 (Fab, V domains shown, Fab, FLAG + Strep-tag II; not tied by name) VH: QVQLVQSGAEVKKPGESLKISCKGSGYSFTSYWIGWVRQMPGKGLEWMGIIYPGDSDTRYSPSFQGQVTISADKSISTAYLQWSSLKASDTAMYYCARLFTYPFLYFDVWGQGTLVTVSS VL: DIALTQPASVSGSPGQSITISCTGTSSDVGGYNYVSWYQQHPGKAPKLMIYDVSNRPSGVSNRFSGSKSGNTASLTISGLQAEDEADYYCQSDFPVMVFGGGTKLTVLG | ~36 | 19 |
| MS-BW-13 (Fab, V domains shown, Fab, FLAG + Strep-tag II; not tied by name) VH: not shown VL: DIELTQPPSVSVAPGQTARISCSGDALGDKYASWYQQKPGQAPVLVIYDDSDRPSGIPERFSGSNSGNTATLTISGTQAEDEADYYCQSWDIHPFDVVFGGGTKLTVLG | ~939 | – |
| MS-BW-12 (Fab, V domains shown, Fab, FLAG + Strep-tag II; not tied by name) VH: QVQLQQSGPGLVKPSQTLSLTCAISGDSVSSNSAAWNWIRQSPGRGLEWLGRTYYRSKWYNDYAVSVKSRITINPDTSKNQFSLQLNSVTPEDTAVYYCARGYADISFDYWGQGTLVTVSS VL: DIALTQPASVSGSPGQSITISCTGTSSDVGGYNYVSWYQQHPGKAPKLMIYDVSNRPSGVSNRFSGSKSGNTASLTISGLQAEDEADYYCQSYDMIARYPVFGGGTKLTVLG | ~419 | > 300 |
| MS-BW-23 (Fab, V domains shown, Fab, FLAG + Strep-tag II; not tied by name) VH: QVQLVQSGAEVKKPGASVKVSCKASGYTFTSYYMHWVRQAPGQGLEWMGWINPNSGGTNYAQKFQGRVTMTRDTSISTAYMELSSLRSEDTAVYYCARIMWSDYGQLVKGGDIWGQGTLVTVSS VL: DIALTQPASVSGSPGQSITISCTGTSSDVGGYNYVSWYQQHPGKAPKLMIYDVSNRPSGVSNRFSGSKSGNTASLTISGLQAEDEADYYCQSYDVFPINRVFGGGTKLTVLG | ~207 | > 300 |
| MS-BW-10 (Fab, V domains shown, Fab, FLAG + Strep-tag II; not tied by name) VH: QVQLVQSGAEVKKPGASVKVSCKASGYTFTSYYMHWVRQAPGQGLEWMGWINPNSGGTNYAQKFQGRVTMTRDTSISTAYMELSSLRSEDTAVYYCARLVGIVGYKPDELLYFDVWGQGTLVTVSS VL: DIELTQPPSVSVAPGQTARISCSGDALGDKYASWYQQKPGQAPVLVIYDDSDRPSGIPERFSGSNSGNTATLTISGTQAEDEADYYCQSYDYSLLVFGGGTKLTVLG | ~200 | ~30 |
| MS-BW-11 (Fab, V domains shown, Fab, FLAG + Strep-tag II; not tied by name) VH: not shown VL: DIELTQPPSVSVAPGQTARISCSGDALGDKYASWYQQKPGQAPVLVIYDDSDRPSGIPERFSGSNSGNTATLTISGTQAEDEADYYCQSYDFNFHVFGGGTKLTVLG | ~200 | > 300 |

The next lines start with the values.

| Kd (rat TIMP-1 [1]) [nM] | IC50 in rat protease assay (rat TIMP-1 [2]) [nM] | Binder |
| --- | --- | --- |
| ~80 | ~200 | MS-BW-15 (Fab, V domains shown, Fab, FLAG + Strep-tag II; not tied by name) VH: not shown VL: DIALTQPASVSGSPGQSITISCTGTSSDVGGYNYVSWYQQHPGKAPKLMIYDVSNRPSGVSNRFSGSKSGNTASLTISGLQAEDEADYYCQSYDVLDSEVFGGGTKLTVLG |
| ~187 | > 300 | MS-BW-19 (Fab, V domains shown, Fab, FLAG + Strep-tag II; not tied by name) VH: QVQLVQSGAEVKKPGESLKISCKGSGYSFTSYWIGWVRQMPGKGLEWMGIIYPGDSDTRYSPSFQGQVTISADKSISTAYLQWSSLKASDTAMYYCARYVTYGYDDYHFDYWGQGTLVTVSS VL: DIALTQPASVSGSPGQSITISCTGTSSDVGGYNYVSWYQQHPGKAPKLMIYDVSNRPSGVSNRFSGSKSGNTASLTISGLQAEDEADYYCQSWDINHAIVFGGGTKLTVLG |
| ~70 | > 300 | MS-BW-20 (Fab, V domains shown, Fab, FLAG + Strep-tag II; not tied by name) VH: QVQLVQSGAEVKKPGSSVKVSCKASGGTFSSYAISWVRQAPGQGLEWMGGIIPIFGTANYAQKFQGRVTITADESTSTAYMELSSLRSEDTAVYYCARSGYLDYWGQGTLVTVSS VL: DIALTQPASVSGSPGQSITISCTGTSSDVGGYNYVSWYQQHPGKAPKLMIYDVSNRPSGVSNRFSGSKSGNTASLTISGLQAEDEADYYCQSYDYYDYGVFGGGTKLTVLG |
| ~68 | ~100 | MS-BW-6 (Fab, V domains shown, Fab, FLAG + Strep-tag II; not tied by name) VH: not shown VL: DIVLTQPPSVSGAPGQRVTISCSGSSSNIGSNYVSWYQQLPGTAPKLLIYDNNQRPSGVPDRFSGSKSGTSASLAITGLQSEDEADYYCQSYDQRKWVFGGGTKLTVLG |
| 23 | 20 | MS-BW-24 (Fab, V domains shown, Fab, FLAG + Strep-tag II; not tied by name) VH: QVQLVQSGAEVKKPGESLKISCKGSGYSFTSYWIGWVRQMPGKGLEWMGIIYPGDSDTRYSPSFQGQVTISADKSISTAYLQWSSLKASDTAMYYCARYYVTDTAYFDYWGQGTLVTVSS VL: DIALTQPASVSGSPGQSITISCTGTSSDVGGYNYVSWYQQHPGKAPKLMIYDVSNRPSGVSNRFSGSKSGNTASLTISGLQAEDEADYYCQSDLYFPVFGGGTKLTVLG |
| ~153 | > 300 | MS-BW-18 (Fab, V domains shown, Fab, FLAG + Strep-tag II; not tied by name) VH: QVQLVQSGAEVKKPGESLKISCKGSGYSFTSYWIGWVRQMPGKGLEWMGIIYPGDSDTRYSPSFQGQVTISADKSISTAYLQWSSLKASDTAMYYCARLVGGGYDLMFDSWGQGTLVTVSS VL: DIALTQPASVSGSPGQSITISCTGTSSDVGGYNYVSWYQQHPGKAPKLMIYDVSNRPSGVSNRFSGSKSGNTASLTISGLQAEDEADYYCQSYDDMQFVFGGGTKLTVLG |
| 35 | 65 | MS-BW-22 (Fab, V domains shown, Fab, FLAG + Strep-tag II; not tied by name) VH: QVQLVQSGAEVKKPGESLKISCKGSGYSFTSYWIGWVRQMPGKGLEWMGIIYPGDSDTRYSPSFQGQVTISADKSISTAYLQWSSLKASDTAMYYCARFRAYGDDFYFDVWGQGTLVTVSS VL: DIALTQPASVSGSPGQSITISCTGTSSDVGGYNYVSWYQQHPGKAPKLMIYDVSNRPSGVSNRFSGSKSGNTASLTISGLQAEDEADYYCQSWDNLKMPVVFGGGTKLTVLG |
| ~138 | – | MS-BW-58 (Fab, V domains shown, Fab, FLAG + Strep-tag II; not tied by name) VH: QVQLQQSGPGLVKPSQTLSLTCAISGDSVSSNSAAWNWIRQSPGRGLEWLGRTYYRSKWYNDYAVSVKSRITINPDTSKNQFSLQLNSVTPEDTAVYYCARWMTPPGHYYGYTFDVWGQGTLVTVSS VL: DIELTQPPSVSVAPGQTARISCSGDALGDKYASWYQQKPGQAPVLVIYDDSDRPSGIPERFSGSNSGNTATLTISGTQAEDEADYYCQSWDPSHYYVFGGGTKLTVLG |
| ~168 | > 300 | MS-BW-7 (Fab, V domains shown) VH: QVQLVQSGAEVKKPGSSVKVSCKASGGTFSSYAISWVRQAPGQGLEWMGGIIPIFGTANYAQKFQGRVTITADESTSTAYMELSSLRSEDTAVYYCARTYYYFDSWGQGTLVTVSS VL: not shown |
